Here are results for 5 molecules from patent US20190336574A1 (TRUSTEES OF PRINCETON UNIVERSITY, published 2019).

Experiment [1] has as its target T1, His6-SND1ΔC (SND1 residues 1-339) (human, UniProt Q7KZF4 1-339).
T1 construct: not shown: N-terminal His tag (His6, His8 or His) with TEV site, pQlink vector
T1 sequence: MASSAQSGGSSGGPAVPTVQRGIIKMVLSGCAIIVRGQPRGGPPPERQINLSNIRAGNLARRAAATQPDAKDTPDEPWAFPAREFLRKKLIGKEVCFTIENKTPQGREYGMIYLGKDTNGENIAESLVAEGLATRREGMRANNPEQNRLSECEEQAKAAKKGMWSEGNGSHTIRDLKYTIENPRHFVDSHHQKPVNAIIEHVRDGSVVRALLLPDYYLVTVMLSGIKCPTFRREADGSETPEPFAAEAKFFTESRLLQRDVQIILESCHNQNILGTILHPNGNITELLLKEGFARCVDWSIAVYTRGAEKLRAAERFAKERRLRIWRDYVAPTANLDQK
Nature of the experiment: GST pull-down of His6-SND1ΔC, SDS-PAGE, Coomassie. The text has this:
FIGS. 7A-E represents determination of key regions and residues mediating the MTDH-SND1 interaction. (FIG. 7A) Schematics of MTDH fragments and mutants with indicated SND1-binding capability. + indicates binding and − indicates no binding based on results shown below. Two putative nuclear localization signals are residues 432-451 for NLS2 and residues 561-580 for NLS3. […] (FIG. 7B) Pulldown of His6-SND1ΔC by GST-tagged MTDH fragments with indicated boundaries. The bound proteins were examined by SDS-PAGE and visualized by Coomassie blue staining. […] For (FIG. 7B) and (FIG. 7C), 1/10 of the His6-SND1ΔC input was shown, and GST alone was used as a negative control. Representative results of 3 independent experiments are shown. (FIG. 7D, FIG. 7E) Lysates from HEK293T cells expressing the indicated ectopic human SND1, AGO2 or MTDH were immunoprecipitated with anti-Myc and immunoblotted with the indicated antibodies.
TPM1 comprises mutations D389R, D393R and W394D. TPM2 comprises mutations E399R, E400R and W401D. TPM3 comprises mutations W404D, D406R and E407R. […] The mutations are also set out in Table 3.

Experiment [2] has as its target His-SND1 (16-339), SN1/2 domains, wild type (human) (UniProt Q7KZF4). As to the kind of experiment: GST pull-down on glutathione resin, SDS-PAGE, Coomassie blue; normalised percentage of binding, mean±SEM of three experiments.

Where a chain is given by its changes, count along the chain named. Names and notes keep the numbering of the source.

B1: GST-MTDH (1-289) (other)
chain: MAARSWQDELAQQAEEGSARLREMLSVGLGFLRTELGLDLGLEPKRYPGWVILVGTGALGLLLLFLLGYGWAAACAGSRKKRRSPPRKREEAAAVPAAAPDDLALLKNLRSEEQKKKNRKKLSEKPKPNGRTVEVAEGEAVRTPQSVTAKQPPEIDKKNEKSKKNKKKSKSDAKAVQNSSRHDGKEVDEGAWETKISHREKRQQRKRDKVLTDSGSLDSTIPGIENTITVTTEQLTTASFPVGSKKNKGDSHLNVQVSNFKSGKGDSTLQVSSGLNENLTVNGGGWNEK
notes: not shown: N-terminal GST tag with TEV site, pQlink vector
Turning to B1, the binding result in experiment [1] is listed as “no binding”.

B2: GST-MTDH (364-582) W401A (protein, not shown: a dimerising Fc or GST)
chain: YQWDVSRNQPYIDDEWSGLNGLSSADPNSDWNAPAEEAGNWVDEERASLLKSQEPIPDDQKVSDDDKEKGEGALPTGKSKKKKKKKKKQGEDNSTAQDTEELEKEIREDLPVNTSKTRPKQEKAFSLKTISTSDPAEVLVKNSQPIKTLPPATSTEPSVILSKSDSDKSSSQVPPILQETDKSKSNTKQNSVPPSQTKSETSWESPKQIKKKKKARRET
With B2, in experiment [2], the % Maximum binding worked out at 6%.

B3: GST-MTDH (364-582) W394D (protein, not shown: a dimerising Fc or GST)
chain: B2 chain with W31D, A38W
Molecule B3 registered a % Maximum binding in experiment [2] of 4%.

B4: GST-MTDH (364-582) TPM2 (E399R, E400R, W401D) (other)
chain: B2 chain with E36R, E37R, A38D
notes: as for B1
B4: the binding result in experiment [1] is “no binding”.

B5: GST-MTDH (364-582) TPM1 (D389R, D393R, W394D) (other)
chain: B2 chain with D26R, D30R, W31D, A38W
notes: as for B1
For B5, in experiment [1], the binding result was “no binding”.
